B1: eBCMA, extracellular domain of BCMA (residues 1-52 of SEQ ID NO:6) (receptor)
chain: MLQMAGQCSQNEYFDSLLHACIPCQLRCSSNTPPLTCQRYCNASVTNSVKGT
notes: Residues 5-43 are ordered in the model; Made as a GST fusion and cleaved with thrombin
B2: extracellular domain of BCMA (residues 1 to 51 of SEQ ID NO:6), soluble monomer, cleaved from GST-BCMA (receptor)
chain: MLQMAGQCSQNEYFDSLLHACIPCQLRCSSNTPPLTCQRYCNASVTNSVKG
notes: Expressed as a GST fusion in pGEX4T-2 and cleaved from GST with thrombin; also called monomeric BCMA; monomeric BMCA
B3: mutant sTALL-1 with residues 217-224 of SEQ ID NO:2 (flap region) replaced by two glycines (ligand)
chain: AVQGPEETVTQDCLQLIADSETPTIQKGSYTFVPWLLSFKRGSALEEKENKILVKETGYFFIYGQVLYTDKTYAMGHLIQRKKGGSLVTLFRCIQNMPETLPNNSCYSAGIAKLEEGDELQLAIPRENAQISLDGDVTFFGALKLL
notes: Gel filtration gave trimer and monomer peaks and no cluster; Immobilised as 'mutant trimeric sTALL-1' in the BIAcore assay; also called truncated sTALL-1; sTALL-1 217-224; not shown: N-terminal His6 tag; the mutant was overexpressed and purified as the native sTALL-1 and detected with anti-His6 mAb; le
B4: BCMA, entire, overexpressed on transfected 293 cells (receptor)
chain: MLQMAGQCSQNEYFDSLLHACIPCQLRCSSNTPPLTCQRYCNASVTNSVKGTNAILWTCLGLSLIISLAVFVLMFLLRKISSEPLKDEFKNTGSGLLGMANIDLEKSRTGDEIILPRGLEYTVEECTCEDCIKSKPKVDSDHCFPLPAMEEGATILVTTKTNDYCKSLPAALSATEIEKSISAR
notes: also called BCMA-transfected 293 cells; cells that overexpressed entire BCMA

Assay [1] deals with T1, soluble TALL-1 (sTALL-1), amino acids 134-285 of human TALL-1, His6-tagged, wild type (human, UniProt Q9Y275 134-285).
T1 construct: Expressed in E. coli; Monomers form trimers, and at pH 7.4 and above a virus-like cluster of 60 monomers (20 trimers); Immobilised as 'wild type multimeric sTALL-1' in the BIAcore assay; also called wild type sTALL-1; native sTALL-1; not shown: N-terminal His6 tag from vector pET14b
Nature of the assay: co-expression, gel filtration at 100 mM to 1 M NaCl and SDS gel analysis, ratio 1:1. As to the method:
However, four lines of evidence support the present inventors' belief that the crystal structure described herein reflects the actual interactions of the complexes in solution and in vivo. First, co-expression of sTALL-1 with eBCMA or eBAFF-R generates the virus-like cluster in solution as judged by gel-filtration column and […] analysis at a ratio of 1:1 (sTALL-1: eBCMA or eBAFF-R). Different salt concentrations (from 100 mM to 1 M NaCl) produce the same elution profile, in which complexes of sTALL-1 with eBCMA or eBAFF-R elute at a void volume on superdex-200. Thus, binding between ligand and receptors is stable and insensitive to salt concentrations. Purified samples of the preformed complexes were subjected to crystallization trials. Crystals of both complexes have been obtained, however neither of them diffracted. The results further confirmed that the “flap” region of TALL-1 which is involved in clustering, is not part of the receptor binding site. […] Second, in the receptor soaked sTALL-1 crystals, all seven fully occupied receptors and one partial receptor have equivalent binding sites on sTALL-1 in the asymmetry unit, so the binding is highly specific. Third, eBCMA and eBAFF-R have a similar binding mode and occupy the same site on sTALL-1. […]

For assay [2], the target named is T1, soluble TALL-1 (sTALL-1), amino acids …. Nature of the assay: BIAcore SPR, sTALL-1 immobilised on CM-5 chip, monomeric BCMA (10-1000 nM) injected, Scatchard analysis of equilibrium binding. The method, then: (§1) The binding affinity of BCMA for the wild type versus mutant sTALL-1 was further determined using BIACore surface plasmon resonance. To obtain the true affinity of the receptor without the confounding effect of multivalent binding, the polyvalent TALL-1 proteins were immobilized in the instrument flow cells and the soluble monomeric BCMA was injected in the mobile phase. The KD of the interaction was calculated by Scatchard analysis of the equilibrium data (data not shown). Briefly, wild type multimeric sTALL-1 and mutant trimeric sTALL-1 were immobilized (11,000 and 3000 RU, respectively) in separate flow cells of a CM-5 BIAcore Biosenser chip using standard amine coupling reagents. Various concentrations (10-1000 nM) of monomeric BMCA were injected for one min at a flow rate of 20 μl/min in a buffer of 100 mMNaCl, 20 mM Tris-HCI pH8.0 and 0.005% P20 detergent and the binding kinetics recording. For base line calculations the same BMCA samples were injected in a control flow cell with no protein immobilized. Receptor binding kinetics were too rapid for accurate measurements of on rates and off rates, but equilibrium binding values (Rmax) were used to calculate the overall affinity of receptor binding by Scatchard analysis.
Background: SPR reads the build-up and loss of mass on a sensor chip optically.

The target in assay [3] is B4. Put plainly: flow cytometry on BCMA-transfected 293 cells, anti-His6 mAb detection. The method, then: (§2) First, BCMA-transfected 293 cells were incubated with control medium, wild type sTALL-1 in the control medium, and mutant sTALL-1 in the control medium. Cell staining was performed by sequential incubation (each 40 min) with anti-His₆ mAb and RPE-conjugated goat […] IgG in staining buffer. The fluorescence was measured by using a Becton Dickinson FACScan flow cytometer (Shu et al., 2000, supra) (data not shown).
(In flow cytometry, cells or beads pass a laser one at a time.)

Assay [4] deals with B2. Put plainly: BIAcore SPR, mutant trimeric sTALL-1 immobilised on CM-5 chip, monomeric BCMA (10-1000 nM) injected, Scatchard analysis of equilibrium binding; mutant trimeric sTALL-1 (flap removed) immobilised, monomeric BCMA injected. The method, then:
as §1

For assay [5], the target named is T1, soluble TALL-1 (sTALL-1), amino acids …. Put plainly: flow cytometry on BCMA-transfected 293 cells, anti-His6 mAb detection. The method, then:
as §2

This note sets out measurements from patent publication US20070015695A1 (NATIONAL JEWISH HEALTH, published 2007).

The term Kd denotes the concentration at which binding is half-saturated. A lower Kd goes with a tighter complex.

Turning to B1, the binding result in assay [1] is on record as “binds”.

Molecule B2 yielded a Kd in assay [2] of roughly 100 nM.

On to B3, for which the binding result in assay [3] is recorded as “binds”. This molecule showed an equilibrium dissociation constant (Kd) in assay [4] of roughly 100 nM.

On to B4, for which the binding result in assay [5] is “binds”.
